Test results published in PMC5711802, “Conservation of folding and association within a family of spidroin N-terminal domains” (Scientific Reports, 2017).

Assays:
[1] = biological target: MaSp1 N-terminal domain (NTD), L. hesperus (UniProt A6YIY1); assay: Kd calculated by the authors from the stopped-flow rate constants (kdiss from C4 / kass from C3); settings: pH 6.0; 298 K; about 60 mM (KCl) for kdiss; not stated exactly for kass; 20 mM MES pH 6.0
[2] = biological target: MaSp1 N-terminal domain (NTD), L. hesperus (UniProt A6YIY1); assay: stopped-flow Trp fluorescence, pH jump (association kinetics); settings: pH 6.0; 298 K; final value not stated (sample at I 150 mM KCl diluted 1:11 into 20 mM MES pH 6.0); 20 mM MES pH 6.0 after mixing (start: 10 mM MES pH 7.0)
[3] = biological target: AttoOxa11-modified Q50C mutant of the MaSp1 NTD from Euprosthenops australis (Euprosthenops australis); assay: stopped-flow AttoOxa11 fluorescence chasing experiment (dissociation kinetics); dimer to monomers; 0.1 uM dimeric AttoOxa11-modified NTD in 20 mM MES pH 6.0, I 60 mM (KCl), chased with 9 uM non-modified NTD in the same buffer; 0.3 mg/mL BSA and 0.05% Tween-20; 298 K; mono-exponential fit
[4] = biological target: MaSp1 NTD Q50C-AttoOxa11, L. geometricus Q50C; assay: stopped-flow AttoOxa11 fluorescence, chasing experiment (dissociation kinetics); settings: pH 6.0; 298 K; I adjusted to 60 mM using potassium chloride; 20 mM MES pH 6.0
[5] = biological target: MaSp1 N-terminal domain (NTD), E. australis (UniProt Q05H60); assay: Kd calculated by the authors from the stopped-flow rate constants (kdiss from C4 / kass from C3); settings: pH 6.0; 298 K; about 60 mM (KCl) for kdiss; not stated exactly for kass; 20 mM MES pH 6.0
[6] = biological target: MaSp1 N-terminal domain (NTD), E. australis (UniProt Q05H60); assay: stopped-flow Trp fluorescence, pH jump (association kinetics); settings: pH 6.0; 298 K; final value not stated (sample at I 150 mM KCl diluted 1:11 into 20 mM MES pH 6.0); 20 mM MES pH 6.0 after mixing (start: 10 mM MES pH 7.0)
[7] = biological target: MaSp1 N-terminal domain (NTD), N. clavipes (UniProt B5SYS5); assay: Kd calculated by the authors from the stopped-flow rate constants (kdiss from C4 / kass from C3); settings: pH 6.0; 298 K; about 60 mM (KCl) for kdiss; not stated exactly for kass; 20 mM MES pH 6.0
[8] = biological target: MaSp1 N-terminal domain (NTD), N. clavipes (UniProt B5SYS5); assay: stopped-flow Trp fluorescence, pH jump (association kinetics); settings: pH 6.0; 298 K; final value not stated (sample at I 150 mM KCl diluted 1:11 into 20 mM MES pH 6.0); 20 mM MES pH 6.0 after mixing (start: 10 mM MES pH 7.0)
[9] = biological target: MaSp1 NTD Q50C-AttoOxa11, E. australis Q50C (UniProt Q05H60); assay: stopped-flow AttoOxa11 fluorescence, chasing experiment (dissociation kinetics); settings: pH 6.0; 298 K; I adjusted to 60 mM using potassium chloride; 20 mM MES pH 6.0
[10] = biological target: MaSp1 NTD Q50C-AttoOxa11, L. hesperus Q50C (UniProt A6YIY1); assay: as above; settings: pH 6.0; 298 K; I adjusted to 60 mM using potassium chloride; 20 mM MES pH 6.0
[11] = biological target: MaSp1 N-terminal domain (NTD), L. geometricus; assay: Kd calculated by the authors from the stopped-flow rate constants (kdiss from C4 / kass from C3); settings: pH 6.0; 298 K; about 60 mM (KCl) for kdiss; not stated exactly for kass; 20 mM MES pH 6.0
[12] = biological target: MaSp1 N-terminal domain (NTD), L. geometricus; assay: stopped-flow Trp fluorescence, pH jump (association kinetics); settings: pH 6.0; 298 K; final value not stated (sample at I 150 mM KCl diluted 1:11 into 20 mM MES pH 6.0); 20 mM MES pH 6.0 after mixing (start: 10 mM MES pH 7.0)
[13] = biological target: MaSp1 NTD Q50C-AttoOxa11, N. clavipes Q50C (UniProt B5SYS5); assay: stopped-flow AttoOxa11 fluorescence, chasing experiment (dissociation kinetics); settings: pH 6.0; 298 K; I adjusted to 60 mM using potassium chloride; 20 mM MES pH 6.0
[14] = biological target: N-terminal domain (NTD) of major ampullate spidroin 1 (MaSp1) from Latrodectus hesperus (Latrodectus hesperus); assay: stopped-flow tryptophan fluorescence (association kinetics); monomer to dimer; monomeric NTD in 10 mM MES pH 7.0, I 150 mM (KCl), mixed 1:11 into 20 mM MES pH 6.0; three concentrations between 0.1 and 1 uM; 298 K; fit to a kinetic model of dimerization
[15] = biological target: N-terminal domain (NTD) of major ampullate spidroin 1 (MaSp1) from Latrodectus hesperus (Latrodectus hesperus); assay: stopped-flow tryptophan fluorescence + other: stopped-flow AttoOxa11 fluorescence chasing experiment; dimer to monomers; Kd calculated as k diss/k ass from the two kinetic experiments; pH 6.0, 298 K
[16] = biological target: N-terminal domain (NTD) of major ampullate spidroin 1 (MaSp1) from Latrodectus hesperus (Latrodectus hesperus); assay: SEC-MALS; dimer conditions: 20 mM MES pH 6.0, ionic strength 60 mM (KCl); 100 uL at 5 mg/mL on Superdex-75 HR10/300, 0.5 ml/min
[17] = biological target: N-terminal domain (NTD) of major ampullate spidroin 1 (MaSp1) from Nephila clavipes (Nephila clavipes); assay: stopped-flow tryptophan fluorescence (association kinetics); monomer to dimer; monomeric NTD in 10 mM MES pH 7.0, I 150 mM (KCl), mixed 1:11 into 20 mM MES pH 6.0; three concentrations between 0.1 and 1 uM; 298 K; fit to a kinetic model of dimerization
[18] = biological target: N-terminal domain (NTD) of major ampullate spidroin 1 (MaSp1) from Nephila clavipes (Nephila clavipes); assay: stopped-flow tryptophan fluorescence + other: stopped-flow AttoOxa11 fluorescence chasing experiment; dimer to monomers; Kd calculated as k diss/k ass from the two kinetic experiments; pH 6.0, 298 K
[19] = biological target: N-terminal domain (NTD) of major ampullate spidroin 1 (MaSp1) from Nephila clavipes (Nephila clavipes); assay: SEC-MALS; dimer conditions: 20 mM MES pH 6.0, ionic strength 60 mM (KCl); 100 uL at 5 mg/mL on Superdex-75 HR10/300, 0.5 ml/min
[20] = biological target: the molecule itself; assay: stopped-flow AttoOxa11 fluorescence chasing experiment (dissociation kinetics); dimer to monomers; 0.1 uM dimeric AttoOxa11-modified NTD in 20 mM MES pH 6.0, I 60 mM (KCl), chased with 9 uM non-modified NTD in the same buffer; 0.3 mg/mL BSA and 0.05% Tween-20; 298 K; mono-exponential fit
[21] = biological target: the molecule itself; assay: stopped-flow tryptophan fluorescence (association kinetics); monomer to dimer; monomeric NTD in 10 mM MES pH 7.0, I 150 mM (KCl), mixed 1:11 into 20 mM MES pH 6.0; three concentrations between 0.1 and 1 uM; 298 K; fit to a kinetic model of dimerization
[22] = biological target: the molecule itself; assay: stopped-flow tryptophan fluorescence + other: stopped-flow AttoOxa11 fluorescence chasing experiment; dimer to monomers; Kd calculated as k diss/k ass from the two kinetic experiments; pH 6.0, 298 K
[23] = biological target: the molecule itself; assay: SEC-MALS; dimer conditions: 20 mM MES pH 6.0, ionic strength 60 mM (KCl); 100 uL at 5 mg/mL on Superdex-75 HR10/300, 0.5 ml/min
[24] = biological target: T1, N-terminal domain (NTD) of major ampullate spidroin 1 (MaSp1) from Euprosthenops australis (Euprosthenops australis), Q05H60; assay: as above; settings: remark: other sources report otherwise
T1 chain: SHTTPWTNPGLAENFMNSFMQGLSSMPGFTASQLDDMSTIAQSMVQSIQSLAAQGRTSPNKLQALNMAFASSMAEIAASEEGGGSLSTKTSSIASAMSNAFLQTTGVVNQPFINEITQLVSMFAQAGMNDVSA

[25] = biological target: T1, N-terminal domain (NTD) of major …; assay: stopped-flow tryptophan fluorescence (association kinetics); monomer to dimer; monomeric NTD in 10 mM MES pH 7.0, I 150 mM (KCl), mixed 1:11 into 20 mM MES pH 6.0; three concentrations between 0.1 and 1 uM; 298 K; fit to a kinetic model of dimerization; settings: remark: other sources report otherwise
[26] = biological target: T1, N-terminal domain (NTD) of major …; assay: stopped-flow tryptophan fluorescence + other: stopped-flow AttoOxa11 fluorescence chasing experiment; dimer to monomers; Kd calculated as k diss/k ass from the two kinetic experiments; pH 6.0, 298 K; settings: remark: other sources report otherwise

Q: “MaSp1 N-terminal domain (NTD), L. hesperus” was tested. Which K d [1] did it give?
A: 0.14 10^-9 M

Q: And the k ass (10^9 M^-1 s^-1) [2]?
A: 2.19

Q: For “AttoOxa11-modified Q50C mutant of the MaSp1 NTD from Euprosthenops australis (domain or fragment)”, which koff [3] is on record?
A: 1.68 s⁻¹

Q: With “MaSp1 NTD Q50C-AttoOxa11, L. geometricus Q50C” as the molecule, how does the k diss [4] read?
A: 0.64 s⁻¹

Q: With “MaSp1 N-terminal domain (NTD), E. australis” as the molecule, how does the K d [5] read?
A: 1.07 10^-9 M

Q: What about the k ass (10^9 M^-1 s^-1) [6] of the same molecule?
A: 1.58

Q: With “MaSp1 N-terminal domain (NTD), N. clavipes” as the molecule, how does the K d [7] read?
A: 0.73 10^-9 M

Q: What about the k ass (10^9 M^-1 s^-1) [8] of the same molecule?
A: 2.58

Q: Which k diss [9] does the source give for “MaSp1 NTD Q50C-AttoOxa11, E. australis Q50C” here?
A: 1.68 s⁻¹

Q: Which k diss [10] does the source give for “MaSp1 NTD Q50C-AttoOxa11, L. hesperus Q50C” here?
A: 0.31 s⁻¹

Q: For “MaSp1 N-terminal domain (NTD), L. geometricus”, which K d [11] is on record?
A: 0.46 10^-9 M

Q: And the k ass (10^9 M^-1 s^-1) [12]?
A: 1.39

Q: For “MaSp1 NTD Q50C-AttoOxa11, N. clavipes Q50C”, which k diss [13] is on record?
A: 1.88 s⁻¹

Q: How did the kon [14] turn out when “N-terminal domain (NTD) of major ampullate spidroin 1 (MaSp1) from Latrodectus hesperus (domain or fragment)” was run?
A: 2.19e+09 M⁻¹ s⁻¹

Q: And the K d [15]?
A: 0.14 nM

Q: What about the stoichiometry N [16] of the same molecule?
A: 2

Q: What does the source list for “N-terminal domain (NTD) of major ampullate spidroin 1 (MaSp1) from Nephila clavipes (domain or fragment)”?
A: kon [17]: 2.58e+09 M⁻¹ s⁻¹; K d [18]: 0.73 nM; stoichiometry N [19]: 2

B1: AttoOxa11-modified Q50C mutant of the MaSp1 NTD from Latrodectus hesperus (domain or fragment)
chain: PWSSKANADAFINSFISAASNTGSFSQDQMEDMSLIGNTLMCAMDNMGGRITPSKLQALDMAFASSVAEIAASEGGDLGVTTNAIADALTSAFYQTTGVVNSRFISEIRSLIGMFAQASAN
modifications: AttoOxa11 (maleimide derivative) on the cysteine at sequence position 50
Q: B1 was tested. Which koff [20] did it give?
A: 0.31 ± 0.02 s⁻¹

B2: AttoOxa11-modified Q50C mutant of the MaSp1 NTD from Latrodectus geometricus (domain or fragment)
chain: PWSSKANADAFINSFISSAQNTGSFSQDQMDDMSLIGNTLMCAMDNMGGRITPSKLQALDMAFASSVAEIAASEGGDLGVTTNAIADALTSAFYQTTGVVNNRFISEIRSLISMFAQASAN
modifications: AttoOxa11 (maleimide derivative) on the cysteine at sequence position 50
Q: With B2 as the molecule, how does the koff [20] read?
A: 0.64 ± 0.02 s⁻¹

B3: N-terminal domain (NTD) of major ampullate spidroin 1 (MaSp1) from Latrodectus geometricus (domain or fragment)
chain: PWSSKANADAFINSFISSAQNTGSFSQDQMDDMSLIGNTLMTAMDNMGGRITPSKLQALDMAFASSVAEIAASEGGDLGVTTNAIADALTSAFYQTTGVVNNRFISEIRSLISMFAQASAN
Q: How did the kon [21] turn out when B3 was run?
A: 1.39e+09 M⁻¹ s⁻¹

Q: What about the Kd [22] of the same molecule?
A: 0.46 nM

Q: What about the “stoichiometry N” value [23] of the same molecule?
A: 2

B4: N-terminal domain (NTD) of major ampullate spidroin 1 (MaSp1) from Euprosthenops australis, Q05H60 24-156 (domain or fragment)
chain: SHTTPWTNPGLAENFMNSFMQGLSSMPGFTASQLDDMSTIAQSMVQSIQSLAAQGRTSPNKLQALNMAFASSMAEIAASEEGGGSLSTKTSSIASAMSNAFLQTTGVVNQPFINEITQLVSMFAQAGMNDVSA
Q: For B4, which stoichiometry N [24] is on record?
A: 2

Q: What about the kon [25] of the same molecule?
A: 1.58e+09 M⁻¹ s⁻¹

Q: And the K d [26]?
A: 1.07 nM

B5: AttoOxa11-modified Q50C mutant of the MaSp1 NTD from Nephila clavipes (domain or fragment)
chain: PWSSTELADAFINAFMNEAGRTGAFTADQLDDMSTIGDTIKCAMDKMARSNKSSKGKLQALNMAFASSMAEIAAVEQGGLSVDAKTNAIADSLNSAFYQTTGAANPQFVNEIRSLINMFAQSSAN
modifications: AttoOxa11 (maleimide derivative) on the cysteine at sequence position 50
Q: With B5 as the molecule, how does the koff [20] read?
A: 1.88 ± 0.05 s⁻¹
